Results: patent US20250122306A1 (SUTRO BIOPHARMA, published 2025)

molecular target: tissue factor reagent of the Tissue Factor Activity Assay Kit (Abcam #ab108906) (UniProt P13726 33-295, limits assumed); test: cell-based or functional assay
Sequence (P13726 33-295 limits assumed): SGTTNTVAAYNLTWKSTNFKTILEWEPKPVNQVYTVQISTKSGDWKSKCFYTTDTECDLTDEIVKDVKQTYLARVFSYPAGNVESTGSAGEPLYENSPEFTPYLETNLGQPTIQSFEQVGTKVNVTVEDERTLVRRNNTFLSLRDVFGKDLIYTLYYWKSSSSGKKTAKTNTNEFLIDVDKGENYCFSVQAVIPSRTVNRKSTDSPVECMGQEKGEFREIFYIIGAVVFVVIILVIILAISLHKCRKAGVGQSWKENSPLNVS

Binder	FX conversion (% inhibition), 1000 nM antibody [%]
SRP2900-E09 (antibody, IgG1, V domains shown) VH: EVQLVESGGGLVQPGGSLRLSCAASGFTISQYWIHWVRQAPGKGLEWVGYIDPYNGYTYYADSVKGRFTISADTSKNTAHLQMNSLRAEDTAVYYCARDYGSFRVQLDYWGQGTLVTVSS VL: not shown	32.2
SRP2900-E10 (antibody, IgG1, V domains shown) VH: EVQLVESGGGLVQPGGSLRLSCAASGFTISDYWIHWVRQAPGKGLEWVGYIDPANGYTYYADSVKGRFTISADTSKNTAYLQMNSLRAEDTAVYYCARDYGSLHVQLDYWGQGTLVTVSS VL: not shown	50.7
SRP2900-F04 (antibody, IgG1, V domains shown) VH: EVQLVESGGGLVQPGGSLRLSCAASGFTISDYWIHWVRQAPGKGLEWVGYIDPYNGFTYYADSVKGRFTISADTSKNTAYLQMNSLRAEDTAVYYCARDYGSLQVFIDYWGQGTLVTVSS VL: not shown	47.3
SRP2900-H10 (antibody, IgG1, V domains shown) VH: EVQLVESGGGLVQPGGSLRLSCAASGFTISDYVIHWVRQAPGKGLEWVGYIDPSNGFTYYADSVKGRFTISADTSKNTAYLQTNSLRAEDTAVYYCARDIQSVSGEFDYWGQGTLVTVSS VL: not shown	45.4
SRP2900-E11 (antibody, IgG1, V domains shown) VH: EVQLVESGGGLVQPGGSLRLSCAASGFTISYYIIHWVRQAPGKGLEWVGYIDPSNGYTYYADSVKGRFTISADTSKNTAYLQMNSLRAEDTAVYYCARDVQSVSGEFDYWGQGTLVTVSS VL: not shown	39.9
SRP2900-G01 (antibody, IgG1, V domains shown) VH: EVQLVESGGGLVQPGGSLRLSCAASGFTIFDYTIHWVRQAPGKGLEWVGYIDPSNGYTFYADSVKGRFTISADTSKNTAYLQVNSLRAEDTAVYYCARDIQSVSGEFDYWGQGTLVTVSS VL: not shown	25.1
SRP2900-G08 (antibody, IgG1, V domains shown) VH: EVQLVESGGGLVQLGGSLRLSCAASGFTIGGYIIHWVRQAPGKGLEWVGYIDPSNGYTYYADSVKGRFTISADTSKNTAYLQMNSLRAEDTAVYYCARDIQSVSGEFDYWGQGTLVTVSS VL: not shown	38.9
SRP2900-G11 (antibody, IgG1, V domains shown) VH: EVQLVESGGGLVQPGGSSRLSCAASGFTIYDYIIHWVRQAPGKGLEWVGYIDPSNGYTDYADSVKGRFTISADTSKNTAYLQMNSLRAEDTAVYYCARDIQSVSGEFDYWGQGTLVTVSS VL: not shown	40.9
SRP2900-H08 (antibody, IgG1, V domains shown) VH: EVQLVESGGGLVQPGGSLRLSCAASGFTISDYVIHWVRQAPGKGLEWVGYIDPSNGYTFYADSVKGRFTISADTPKNTAYLQMNSLRAKDTAVYYCARDPQSLSSPFDYWGQGTLVTVSS VL: not shown	32.2
SRP2900-F07 (antibody, IgG1, V domains shown) VH: EVQLVESGGGLVQPGGSLRLSCAASGFTISDYTIHWVRQAPGKGLEWVGYIDPSNGYTYHADSVKGRFTISADTSKNTAYLQMNSLRAEDTAVYYCARDPQSVSSPFDYWGQGTLVTVSS VL: not shown	30.3
SRP2900-G06 (antibody, IgG1, V domains shown) VH: EVQLVESGGGLVQPGGSLRLSCAASGFTISDYIIHWVRQAPGKGLEWVGYIDPSNGYTYYADSVKGRFTISADTSKNTAYLQMNSLRAEDTAVYYCARDDQSLSSPFDYWGQGTLVTVSS VL: not shown	21.4
SRP2900-G04 (antibody, IgG1, V domains shown) VH: EVQLVESGGGLVQPGGSLRLSCAASGFTTRDYVIHWVRQAPGKGLEWVGYIDPSNGYTYYADSVKGRFTISADTSKNTAYLQMNSLRAEDTAVYYCARDPQSLSSPFDYWGQGTLVTVSS VL: not shown	31.2
SRP2900-H01 (antibody, IgG1, V domains shown) VH: EVQLVESGGGLVQPGGSLRLSCAASGFTIFDYIIHWVRQAPGKGLEWVGYIDPSNGYTYYADSVKGRFTISADTSKNTAYLQMNSLRAEDTAVYYCARDPQSVGSEFDYWGQGTLVTVSS VL: not shown	30.5
SRP2900-A07 (antibody, IgG1, V domains shown) VH: EVQLVESGGGLVQPGGSLRLSCAASGFTISSYWIHWVRQAPGKGLEWVGYIDPYNGATYYADSVKGRFTISADTSKNTAYLQMNSLRAEDTAVYYCARSDYYYVDEFFDYWGQGTLVTVSS VL: not shown	28.4
SRP2900-A06 (antibody, IgG1, V domains shown) VH: EVQLVESGGGLVQPGGSLRLSCAASGFTISSYWIHWVRQAPGKGLEWVGYIDPFNGATYYADSVKGRFTISADTSKNTAYLQMNSLRAEDTAVYYCARADYYYVDEYWDYWGQGTLVTVSS VL: not shown	36.8
SRP2900-A03 (antibody, IgG1, V domains shown) VH: EVQLVESGGGLVQPGGSLRLSCAASGFTIPSYWIHWVRQAPGKGLEWVGYIDPANGATYYADSVKGRFTISADTSKNTAYLQMNSLRAEDTAVYYCARADYFYVDEYLDYWGQGTLVTVSS VL: not shown	26.3

More lines, now with the values ahead:

FX conversion (% inhibition), 1000 nM antibody [%]	Binder
23.5	SRP2900-E05 (antibody, IgG1, V domains shown) VH: EVQLVESGGGLVQPGGSLRLSCAASGFTISGYWIHWVRQAPGKGLEWVGYIDPANGFTYYADSVKGRFTISADTSKNTAYLQMNSLRAEDTAVYYCARDYGSVRVFLDYWGQGTLVTVSS VL: not shown
45.8	SRP2900-E08 (antibody, IgG1, V domains shown) VH: EVQLVESGGGLVQPGGSLRLSCAASGFTITDYWIHWVRQAPGKGLEWVGYIDPYNGYTYYADSVKGRFTISADTSKNTAYLQMNSLRAEDTAVYYCARDYGSLQVFIDYWGQGTLVTVSS VL: not shown
36.2	SRP2900-H05 (antibody, IgG1, V domains shown) VH: EVQLVESGGGLVQPGGSLRLSCAASGFTISDYTIHWVRQAPGKGLEWVGYIDPSNGYTYYADSVKGRFTISADTSKNTAYLQMNSLRAEDTAVYYCARDIQSVSGEFDYWGQGTLVTVSS VL: not shown
36.3	SRP2900-H04 (antibody, IgG1, V domains shown) VH: EVQLVESGGGLVQPGGSLRLSCAASGFTISHYIIHWVRQAPGKGLEWVGYIDPSNGYTYYADSVKGRFTISADTSKNTAYLQMNSLRAEDTAVYYCARDIQSVSGEFDYWGQGTLVTVSS VL: not shown
25.1	SRP2900-F05 (antibody, IgG1, V domains shown) VH: EVQLVESGGGLVQPGGSLRLSCAASGFTINDYVIHWVRQAPGKGLEWVGYIDPSNGYTYYADSVKGRFTISADTSKNTAYLQMNSLRAEDTAVYYCARDDQSLSSPFDYWGQGTLVTVSS VL: not shown
48.7	SRP2900-G10 (antibody, IgG1, V domains shown) VH: EVQLVESGGGLVQPGGSLRLSCAASGFTIPDYIIHWVRQAPGKGLEWVGYIDPSNGYTYYADSVKGRFTISADTSKNTAYLQMNSLRAEDTAVYYCARDIQSVSGEFDYWGQGTLVTVSS VL: not shown
30.4	SRP2900-G09 (antibody, IgG1, V domains shown) VH: EVQLVESGGGLVQPGGSLRLSCAASGFTISDYIIHWVRQAPGKGLEWVGYIDPSNGYTYYADSVKGRFTISADTSKNTAYLQMNSLRAEDTAVYYCARDPQSLTSPFDYWGQGTLVTVSS VL: not shown
40.8	SRP2900-H03 (antibody, IgG1, V domains shown) VH: EVQLVESGGGLVQPGGSLRLSCAASGFTIYDYIIHWVRQAPGKGLEWVGYIDPSNGYTYHADSVKGRFTISADTSKNTAYLQMNSLRAEDTAVYYCARDPQSLSSPFDYWGQGTLVTVSS VL: not shown
38.3	SRP2900-G07 (antibody, IgG1, V domains shown) VH: EVQLVESGGGLVQPGGSLRLSCAASGFTISDYVIHWVRQAPGKGLEWVGYIDPSNGYTYYADSVKGRFTISADTSKNTAYLQMNSLRAEDTAVYYCARDPQSLTSPFDYWGQGTLVTVSS VL: not shown
40.4	SRP2900-H02 (antibody, IgG1, V domains shown) VH: EVQLVESGGGLVQPGGSLRLSCAASGFTIFDYIIHWVRQAPGKGLEWVGYIDPSNGYTYYADSVKGRFTISADTSKNTAYLQMNSLRAEDTAVYYCARDIQSVSGEFDYWGQGTLVTVSS VL: not shown
32.5	SRP2900-F10 (antibody, IgG1, V domains shown) VH: EVQLVESGGGLVQPGGSLRLSCAASGFTISDYVIHWVRQAPGKGLEWVGYIDPSNGYTYYADSVKGRFTISADTSKNTAYLQMNSLRAEDTAVYYCARDPQSLFYPFDYWGQGTLVTVSS VL: not shown
25.9	SRP2900-E04 (antibody, IgG1, V domains shown) VH: EVQLVESGGGLVQPGGSLRLSCAASGFTIPDYWIHWVRQAPGKGLEWVGYIDPYSGSTFYADSVKGRFTISADTSKNTAYLQMNSLRAEDTAVYYCARADYYYVDEYLDYWGQGTLVTVSS VL: not shown
38.6	SRP2900-A04 (antibody, IgG1, V domains shown) VH: EVQLVESGGGLVQPGGSLRLSCAASGFTISGYWIHWVRQAPGKGLEWVGYIDPYNGATYYADSVKGRFTISADTSKNAAYLQMNSLRAEDTAVYYCARADYFYIDEYWDYWGQGTLVTVSS VL: not shown

molecular target: human tissue factor on cells (human, UniProt P13726 33-295); test: cell-based or functional assay
Sequence (P13726 33-295 limits assumed): as the sequence (P13726 33-295 limits assumed) above

Binder	cell killing EC50, HCC1954 (TF+++) [nM]	cell killing EC50, HCC1954, with 0.5 uM unconjugated mAb 36 [nM]	cell killing EC50, NCI-H292 (TF++++) [nM]	cell killing EC50, NCI-H1975 (TF++) [nM]	cell killing EC50, NCI-H1975, with 0.5 uM unconjugated mAb 36 [nM]	cell killing Span, HCC1954 (TF+++) [%]	cell killing Span, NCI-H292 (TF++++) [%]	cell killing Span, NCI-H1975 (TF++) [%]
Conjugate 1: 2900-A02 Y180/F404-LP1 (antibody, human IgG1, kappa, pAMF at Y180 and F404 (EU), each linked to LP1 (DBCO-Valcit-pAB-hemiasterlin)) heavy: MEVQLVESGGGLVQPGGSLRLSCAASGFTISGYIIHWVRQAPGKGLEWVGYIDPSNGYTYYADSVKGRFTISADTSKNTAYLQMNSLRAEDTAVYYCARDDQSLSSPFDYWGQGTLVTVSSASTKGPSVFPLAPSSKSTSGGTAALGCLVKDYFPEPVTVSWNSGALTSGVHTFPAVLQSSGLSLSSVVTVPSSSLGTQTYICNVNHKPSNTKVDKKVEPKSCDKTHTCPPCPAPELLGGPSVFLFPPKPKDTLMISRTPEVTCVVVDVSHEDPEVKFNWYVDGVEVHNAKTKPREEQYNSTYRVVSVLTVLHQDWLNGKEYKCKVSNKALPAPIEKTISKAKGQPREPQVYTLPPSREEMTKNQVSLTCLVKGFYPSDIAVEWESNGQPENNYKTTPPVLDSDGSFLYSKLTVDKSRWQQGNVFSCSVMHEALHNHYTQKSLSLSPGK light: not shown	0.064	> 100	0.055	~25	> 100	95	85	62
